First the molecules themselves.
B1: FLAG-tagged CDIN1 (F-CDIN1) (natural protein, UniProt Q9Y2V0 1-281, looked up)
chain: MILTKAQYDEIAQCLVSVPPTRQSLRKLKQRFPSQSQATLLSIFSQEYQKHIKRTHAKHHTSEAIESYYQRYLNGVVKNGAAPVLLDLANEVDYAPSLMARLILERFLQEHEETPPSKSIINSMLRDPSQIPDGVLANQVYQCIVNDCCYGPLVDCIKHAIGHEHEVLLRDLLLEKNLSFLDEDQLRAKGYDKTPDFILQVPVAVEGHIIHWIESKASFGDECSHHAYLHDQFWSYWNRFGPGLVIYWYGFIQELDCNRERGILLKACFPTNIVTLCHSIA
notes: CDIN1 (C15orf41) cDNA synthesized by IDT, in pCDNA3.1; source: Expi293, transiently transfected, in lysate and purified in complexes (anti-FLAG, Strep-Tactin); not shown: 3xFLAG, N-terminal, kept
B2: Strep-tagged CDAN1 (ST-CDAN1), wildtype (natural protein, human)
chain: MAAVLESLLREEVSVAAVVRWIARSTQGSEDNAGEAAALSSLRALRKEFVPFLLNFLREQSSRVLPQGPPTPAKTPGASAALPGRPGGPPRGSRGARSQLFPPTEAQSTAAEAPLARRGGRRRGPGPARERGGRGLEEGVSGESLPGAGGRRLRGSGSPSRPSLTLSDPPNLSNLEEFPPVGSVPPGPTGTKPSRRINPTPVSEERSLSKPKTCFTSPPISCVPSSQPSALDTSPWGLGLPPGCRSLQEEREMLRKERSKQLQQSPTPTCPTPELGSPLPSRTGSLTDEPADPARVSSRQRLELVALVYSSCIAENLVPNLFLELFFVFQLLTARRMVTAKDSDPELSPAVLDSLESPLFQSIHDCVFFAVQVLECHFQVLSNLDKGTLKLLAENERLLCFSPALQGRLRAAYEGSVAKVSLVMPPSTQAVSFQPETDNRANFSSDRAFHTFKKQRDVFYEVLREWEDHHEEPGWDFEKGLGSRIRAMMGQLSAACSHSHFVRLFQKQLLQMCQSPGGAGGTVLGEAPDVLSMLGADKLGRLWRLQERLMAPQSSGGPCPPPTFPGCQGFFRDFILSASSFQFNQHLMDSLSLKIQELNGLALPQHEPNDEDGESDVDWQGERKQFAVVLLSLRLLAKFLGFVAFLPYRGPEPPPTGELQDSILALRSQVPPVLDVRTLLQRGLQARRAVLTVPWLVEFLSFADHVVPLLEYYRDIFTLLLRLHRSLVLSQESEGKMCFLNKLLLLAVLGWLFQIPTVPEDLFFLEEGPSYAFEVDTVAPEHGLDNAPVVDQQLLYTCCPYIGELRKLLASWVSGSSGRSGGFMRKITPTTTTSLGAQPSQTSQGLQAQLAQAFFHNQPPSLRRTVEFVAERIGSNCVKHIKATLVADLVRQAESLLQEQLVTQGEEGGDPAQLLEILCSQLCPHGAQALALGREFCQRKSPGAVRALLPEETPAAVLSSAENIAVGLATEKACAWLSANITALIRREVKAAVSRTLRAQGPEPAARGERRGCSRACEHHAPLPSHLISEIKDVLSLAVGPRDPDEGVSPEHLEQLLGQLGQTLRCRQFLCPPAEQHLAKCSVELASLLVADQIPILGPPAQYRLERGQARRLLHMLLSLWKEDFQGPVPLQLLLSPRNVGLLADTRPREWDLLLFLLRELVEKGLMGRMEIEACLGSLHQAQWPGDFAEELATLSNLFLAEPHLPEPQLRACELVQPNRGTVLAQS
notes: Codanin-1 (CDAN1) cDNA from Horizon Discovery/Dharmacon; a point mutation of the clone (S421F) was corrected; in pCDNA3.1; Dimer by SEC-MALS and cryo-EM; Same plasmid used in Expi293 (purifications) and in Flp-In 293 T-REx (pulldowns); kept as one molecule; also called WT CDAN1; Strep-CDAN1; source: Expi293, transiently transfected, in lysate and purified in complexes (anti-FLAG, Strep-Tactin); …
B3: CDAN1 MA3 domain (ST-CDAN1C, residues 1008-1227) (domain or fragment, human, UniProt Q8IWY9 1008-1227, looked up)
chain: GERRGCSRACEHHAPLPSHLISEIKDVLSLAVGPRDPDEGVSPEHLEQLLGQLGQTLRCRQFLCPPAEQHLAKCSVELASLLVADQIPILGPPAQYRLERGQARRLLHMLLSLWKEDFQGPVPLQLLLSPRNVGLLADTRPREWDLLLFLLRELVEKGLMGRMEIEACLGSLHQAQWPGDFAEELATLSNLFLAEPHLPEPQLRACELVQPNRGTVLAQS
notes: Codanin-1 (CDAN1), MA3 domain, residues 1008-1227; also called Strep-CDAN1C; CDAN1 C-term; source: Expi293, transiently transfected, purified in complex with F-CDIN1 (anti-FLAG, Strep-Tactin); not shown: 3xStrep-II-TEV, N-terminal, kept

Values joined by “and” are separate entries in the source; they are usually repeats but may differ in a detail not shown here. Equal entries are not always repeated.

For data set [1], the target named is B2. The experiment in a line: SEC-MALS; 200 μg of each purified complex at 5 μM on an SRT SEC-300 column with DAWN HELEOS II detector; dn/dc 0.185. To be noted: both partners purified. In general terms: SEC sorts molecules by how far they enter the pores of the column.
Data set [2] concerns the molecule itself. The data set is described as above.
The target of data set [3] is B1. Description: cryo-EM structure; purified CDAN1 C-term:CDIN1 (C:C) complex crosslinked with BS3, 0.78 mg/mL; single-particle cryo-EM, ~6 Å reconstruction. The note with it: both partners purified.

Three molecules from article doi:10.1101/2024.08.08.607204, “Mechanism of ASF1 Inhibition by CDAN1” (bioRxiv, 2024) can be followed below.

As to B1, the “stoichiometry N” value in data set [1] is 2 copies of CDIN1 per two copies of CDAN1.

For the molecule B2, the “stoichiometry N” value in data set [2] was 2 copies of CDAN1 in the C:A complex and 2 copies of CDAN1 in the C:C:A complex.

Turning to B3, the binding result in data set [3] is “binds”.
